Data from PMC8041169.

Target: recombinant truncated LvAPN1-His (N-terminal region of Litopenaeus vannamei aminopeptidase N1 with the Cry toxin binding region and the active site of the peptidase-M1 domain) (Litopenaeus vannamei)
Test: ELISA; 20 ug purified truncated rLvAPN1 coated overnight in 0.1 M carbonate/bicarbonate buffer pH 9.6 at 4 C; blocked with 0.5% BSA in TBS pH 8.0; rPirA^vp, rPirB^vp or rGST at 0-10 uM in TBS incubated at 4 C overnight; detected with rabbit anti-PirA^vp or anti-PirB^vp polyclonal antibody and HRP-conjugated secondary antibody, A450; one-site binding model; apparent Kd

| Substance | Kd |
| --- | --- |
| recombinant PirA^vp-His toxin subunit of Vibrio parahaemolyticus (VP_AHPND) (natural protein) | 3200 nM |
| recombinant PirB^vp-GST toxin subunit of Vibrio parahaemolyticus (VP_AHPND) (natural protein) | 500 nM |
